The source of these data is US6395548, “Methods of modulating of angiogenesis” (President and Fellows of Harvard College).

The target in data set [1] is HIF-1alpha/ARNT4 (Homo sapiens, UniProt Q16665;Q8WYA1-5 Q16665:1-826,Q8WYA1-5:1-602). Description: EMSA; HIF-1 did not form dimers with ARNT4 and bind the site. In general terms: A gel shift assay detects complexes by their altered migration in electrophoresis.
The target in data set [2] is EPAS1/ARNT4 heterodimer (Homo sapiens, UniProt Q99814;Q8WYA1-5 Q99814:1-870,Q8WYA1-5:1-602). Description: EMSA; probe described as HIF-1 site / hypoxia responsive element of VEGF.
EPAS1/ARNT4 heterodimer, sequence (Q99814 whole entry, chain 1 of 2): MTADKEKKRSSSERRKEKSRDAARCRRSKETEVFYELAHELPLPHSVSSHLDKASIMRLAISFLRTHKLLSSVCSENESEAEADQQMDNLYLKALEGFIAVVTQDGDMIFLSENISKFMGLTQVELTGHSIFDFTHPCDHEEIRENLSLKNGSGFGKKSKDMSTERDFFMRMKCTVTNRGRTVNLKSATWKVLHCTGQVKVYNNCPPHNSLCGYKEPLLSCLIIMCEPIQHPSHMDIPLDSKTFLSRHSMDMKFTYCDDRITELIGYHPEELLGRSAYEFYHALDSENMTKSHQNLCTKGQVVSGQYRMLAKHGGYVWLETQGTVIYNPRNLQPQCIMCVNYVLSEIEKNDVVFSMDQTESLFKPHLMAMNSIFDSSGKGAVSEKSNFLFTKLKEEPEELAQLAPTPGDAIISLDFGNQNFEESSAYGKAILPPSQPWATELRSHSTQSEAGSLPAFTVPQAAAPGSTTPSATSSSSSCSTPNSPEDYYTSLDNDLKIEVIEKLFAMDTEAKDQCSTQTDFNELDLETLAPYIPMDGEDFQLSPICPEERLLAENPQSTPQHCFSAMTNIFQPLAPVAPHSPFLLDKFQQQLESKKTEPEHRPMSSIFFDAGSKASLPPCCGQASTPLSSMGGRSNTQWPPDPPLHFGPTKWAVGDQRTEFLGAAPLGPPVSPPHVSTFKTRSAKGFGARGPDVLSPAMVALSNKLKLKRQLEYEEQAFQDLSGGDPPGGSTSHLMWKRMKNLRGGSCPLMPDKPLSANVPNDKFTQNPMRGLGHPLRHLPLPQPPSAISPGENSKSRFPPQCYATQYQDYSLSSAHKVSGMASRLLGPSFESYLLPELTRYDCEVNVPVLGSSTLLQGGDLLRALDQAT
EPAS1/ARNT4 heterodimer, sequence (Q8WYA1 other isoform, or with tags, fused parts or gaps, chain 2 of 2): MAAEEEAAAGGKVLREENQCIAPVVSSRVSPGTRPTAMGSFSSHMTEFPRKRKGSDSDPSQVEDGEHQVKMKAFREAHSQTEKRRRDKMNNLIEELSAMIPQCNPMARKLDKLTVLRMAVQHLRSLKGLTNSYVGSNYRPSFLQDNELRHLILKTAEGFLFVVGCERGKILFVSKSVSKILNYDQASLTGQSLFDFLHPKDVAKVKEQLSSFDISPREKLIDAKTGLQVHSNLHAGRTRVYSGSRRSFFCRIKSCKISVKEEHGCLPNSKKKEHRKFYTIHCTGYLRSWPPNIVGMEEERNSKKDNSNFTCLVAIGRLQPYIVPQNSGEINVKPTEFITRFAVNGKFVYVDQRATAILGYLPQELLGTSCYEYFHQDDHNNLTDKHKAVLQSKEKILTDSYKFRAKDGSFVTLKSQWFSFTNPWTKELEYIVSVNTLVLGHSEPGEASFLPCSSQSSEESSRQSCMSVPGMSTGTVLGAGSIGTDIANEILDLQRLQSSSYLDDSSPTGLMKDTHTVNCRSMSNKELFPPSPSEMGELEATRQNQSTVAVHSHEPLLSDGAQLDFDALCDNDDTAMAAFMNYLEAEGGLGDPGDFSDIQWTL

HIF-1alpha/ARNT4, sequence (Q16665 whole entry, chain 1 of 2): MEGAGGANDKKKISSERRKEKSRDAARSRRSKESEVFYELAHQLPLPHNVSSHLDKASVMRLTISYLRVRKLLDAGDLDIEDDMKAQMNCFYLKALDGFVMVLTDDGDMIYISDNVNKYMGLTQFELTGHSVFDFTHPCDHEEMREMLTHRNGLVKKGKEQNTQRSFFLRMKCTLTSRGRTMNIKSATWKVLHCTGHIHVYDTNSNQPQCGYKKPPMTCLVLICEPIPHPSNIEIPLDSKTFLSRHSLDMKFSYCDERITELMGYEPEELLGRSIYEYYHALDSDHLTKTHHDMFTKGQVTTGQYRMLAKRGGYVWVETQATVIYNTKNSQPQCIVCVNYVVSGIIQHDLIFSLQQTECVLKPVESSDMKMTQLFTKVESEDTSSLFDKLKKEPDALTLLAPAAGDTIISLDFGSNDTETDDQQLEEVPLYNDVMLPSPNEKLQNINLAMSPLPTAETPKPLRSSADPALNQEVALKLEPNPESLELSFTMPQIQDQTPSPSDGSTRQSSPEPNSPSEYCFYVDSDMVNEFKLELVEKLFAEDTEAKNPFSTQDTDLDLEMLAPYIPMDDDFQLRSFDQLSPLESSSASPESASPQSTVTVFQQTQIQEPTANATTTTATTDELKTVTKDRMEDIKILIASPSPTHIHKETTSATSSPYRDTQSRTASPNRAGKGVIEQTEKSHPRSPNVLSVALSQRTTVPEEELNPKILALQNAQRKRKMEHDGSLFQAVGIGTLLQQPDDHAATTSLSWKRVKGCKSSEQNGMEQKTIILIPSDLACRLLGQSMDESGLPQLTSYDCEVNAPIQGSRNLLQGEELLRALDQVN
HIF-1alpha/ARNT4, sequence (Q8WYA1 other isoform, or with tags, fused parts or gaps, chain 2 of 2): as the sequence (Q8WYA1 other isoform, or with tags, fused parts or gaps, chain 2 of 2) above

B1: VEGF promoter HIF-1 binding site / hypoxia responsive element (dsDNA)
DNA 1: GCCCTACGTGCTGTCTCA
DNA 2: TGAGACAGCACGTAGGGC
In the case of B1, the binding result in data set [1] was “no binding”; in data set [2], “binds”.
